Laboratory results published in patent publication US20250186594A1 (BRIGHT PEAK THERAPEUTICS, published 2025).
Substitutions are numbered along the chain they refer to. Names and notes keep the numbering of the source.

T1: IL-18 receptor (IL-18R) on HEK-Blue IL18R reporter cells (UniProt Q13478 19-541; O95256 20-599, limits assumed)
T1 sequence (looked up) 1: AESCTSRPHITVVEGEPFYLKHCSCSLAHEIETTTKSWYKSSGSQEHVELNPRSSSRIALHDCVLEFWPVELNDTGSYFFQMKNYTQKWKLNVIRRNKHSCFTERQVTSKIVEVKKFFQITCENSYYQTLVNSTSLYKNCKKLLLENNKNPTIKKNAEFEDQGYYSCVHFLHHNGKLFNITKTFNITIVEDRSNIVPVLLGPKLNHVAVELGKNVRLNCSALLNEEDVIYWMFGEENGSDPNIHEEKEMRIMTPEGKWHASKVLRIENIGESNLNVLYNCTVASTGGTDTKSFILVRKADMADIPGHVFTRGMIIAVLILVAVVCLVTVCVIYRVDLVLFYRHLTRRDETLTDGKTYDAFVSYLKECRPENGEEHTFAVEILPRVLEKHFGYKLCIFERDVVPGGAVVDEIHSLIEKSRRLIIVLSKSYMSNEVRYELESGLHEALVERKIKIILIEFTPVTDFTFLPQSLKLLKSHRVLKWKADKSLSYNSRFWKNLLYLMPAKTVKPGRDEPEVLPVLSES
T1 sequence (looked up) 2: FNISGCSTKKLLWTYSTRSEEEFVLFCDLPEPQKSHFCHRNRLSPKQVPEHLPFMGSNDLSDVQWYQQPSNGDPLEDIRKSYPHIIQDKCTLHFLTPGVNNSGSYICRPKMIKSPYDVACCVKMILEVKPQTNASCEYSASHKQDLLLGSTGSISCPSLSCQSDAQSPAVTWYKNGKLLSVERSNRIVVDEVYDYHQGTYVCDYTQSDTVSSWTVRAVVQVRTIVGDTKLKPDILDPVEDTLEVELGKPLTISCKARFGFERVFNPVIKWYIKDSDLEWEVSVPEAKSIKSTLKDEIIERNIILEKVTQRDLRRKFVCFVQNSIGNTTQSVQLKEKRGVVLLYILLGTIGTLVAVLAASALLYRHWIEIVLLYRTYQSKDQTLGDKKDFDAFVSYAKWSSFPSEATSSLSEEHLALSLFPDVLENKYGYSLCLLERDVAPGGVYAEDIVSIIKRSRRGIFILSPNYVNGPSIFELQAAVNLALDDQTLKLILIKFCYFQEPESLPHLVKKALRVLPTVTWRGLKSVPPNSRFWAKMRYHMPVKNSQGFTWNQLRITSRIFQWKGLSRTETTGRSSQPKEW

B1: IL-18 variant SEQ ID NO: 234 (E6K, V11I, C38A, K53A, T63A, C76A, Q103R, C127A) (ligand)
chain: YFGKLKSKLSIIRNLNDQVLFIDQGNRPLFEDMTDSDARDNAPRTIFIISMYADSQPRGMAVAISVKCEKISTLSAENKIISFKEMNPPDNIKDTKSDIIFFRRSVPGHDNKMQFESSSYEGYFLAAEKERDLFKLILKKEDELGDRSIMFTVQNED
B2: IL-18 variant SEQ ID NO: 235 (E6K, K8E, V11I, C38A, K53A, T63A, C76A, Q103R, C127A) (ligand)
chain: B1 chain with K8E
B3: IL-18 variant SEQ ID NO: 220 (V11I, C38A, K53A, C76A, H109A, C127A) (ligand)
chain: B1 chain with K6E, A63T, R103Q, H109A
B4: IL-18 variant SEQ ID NO: 223 (K8E, V11I, C38A, C76A, Q103R, C127A) (ligand)
chain: B1 chain with K6E, K8E, A53K, A63T
B5: IL-18 variant SEQ ID NO: 232 (E6K, V11I, C38A, I49M, K53A, T63A, C76A, C127A) (ligand)
chain: B1 chain with I49M, R103Q
B6: IL-18 variant SEQ ID NO: 237 (E6K, V11I, C38A, K53A, T63A, C76A, C127A, V153E) (ligand)
chain: B1 chain with R103Q, V153E
B7: IL-18 variant SEQ ID NO: 230 (K8L, E6K, V11I, C38A, K53A, T63A, C76A, C127A) (ligand)
chain: B1 chain with K8L, R103Q
B8: IL-18 variant SEQ ID NO: 219 (V11I, C38A, K53A, C76A, G108A, C127A) (ligand)
chain: B1 chain with K6E, A63T, R103Q, G108A
B9: IL-18 variant SEQ ID NO: 221 (V11I, C38A, K53A, C76A, D110A, C127A) (ligand)
chain: B1 chain with K6E, A63T, R103Q, D110A
B10: IL-18 variant SEQ ID NO: 226 (V11I, C38A, S55R, C76A, C127A) (ligand)
chain: B1 chain with K6E, A53K, S55R, A63T, R103Q
B11: IL-18 variant SEQ ID NO: 222 (K8R, V11I, C38A, C76A, Q103E, C127A) (ligand)
chain: B1 chain with K6E, K8R, A53K, A63T, R103E
B12: IL-18 variant SEQ ID NO: 227 (V11I, C38A, S55T, C76A, C127A) (ligand)
chain: B1 chain with K6E, A53K, S55T, A63T, R103Q
B13: IL-18 variant SEQ ID NO: 224 (V11I, C38A, C76A, Q103K, C127A) (ligand)
chain: B1 chain with K6E, A53K, A63T, R103K
B14: IL-18 variant SEQ ID NO: 238 (E6K, V11I, C38A, K53A, T63A, C76A, C127A, V153Y) (ligand)
chain: B1 chain with R103Q, V153Y

What follows are binders tested against T1, IL-18 receptor (IL-18R) on HEK-Blue … (assay: cell-based or functional assay).
With B1 the “EC50, HEK-Blue IL18R reporter” value was 0.26 nM.
With B2 the “EC50, HEK-Blue IL18R reporter” value was 0.4 nM.
For B3, the “EC50, HEK-Blue IL18R reporter” value was 19.5 nM.
With B4 the “EC50, HEK-Blue IL18R reporter” value was 2.3 nM.
B5 was tested, and the “EC50, HEK-Blue IL18R reporter” value was 0.07 nM.
In the case of B6, the “EC50, HEK-Blue IL18R reporter” value is reported as 0.1 nM.
B7 was tested, and the “EC50, HEK-Blue IL18R reporter” value was 0.29 nM.
For B8, the “EC50, HEK-Blue IL18R reporter” value was 15.6 nM.
In the case of B9, the “EC50, HEK-Blue IL18R reporter” value is reported as 2.02 nM.
In the case of B10, the “EC50, HEK-Blue IL18R reporter” value is reported as 1.91 nM.
With B11 the “EC50, HEK-Blue IL18R reporter” value was 2.01 nM.
For B12, the “EC50, HEK-Blue IL18R reporter” value was 4.73 nM.
In the case of B13, the “EC50, HEK-Blue IL18R reporter” value is reported as 1.5 nM.
For B14, the “EC50, HEK-Blue IL18R reporter” value was 0.08 nM.
